Legend:
[1] = target: T1, APC3323-AA; assay: two-hybrid library CCmax; settings: mean of both orientations;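 note: natural log of median RNA to DNA barcode read ratio; higher means stronger binding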
T1 chain: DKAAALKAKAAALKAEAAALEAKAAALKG

[2] = target: T2, APC4336-AA; assay: two-hybrid library CCmax; settings: mean of both orientations;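 note: natural log of median RNA to DNA barcode read ratio; higher means stronger binding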
T2 chain: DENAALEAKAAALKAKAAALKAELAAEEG

[3] = target: T3, APC8516-AA; assay: two-hybrid library CCmax; settings: mean of both orientations;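 note: natural log of median RNA to DNA barcode read ratio; higher means stronger binding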
T3 chain: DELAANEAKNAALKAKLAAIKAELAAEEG

[4] = target: T4, APC7524-AA; assay: two-hybrid library CCmax; settings: mean of both orientations;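 note: natural log of median RNA to DNA barcode read ratio; higher means stronger binding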
T4 chain: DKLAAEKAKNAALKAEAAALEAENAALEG

[5] = target: T5, APC5009-AA; assay: two-hybrid library CCmax; settings: mean of both orientations;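 note: natural log of median RNA to DNA barcode read ratio; higher means stronger binding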
T5 chain: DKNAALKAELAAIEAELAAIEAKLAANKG

[6] = target: T6, APC9806-AA; assay: two-hybrid library CCmax; settings: mean of both orientations;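 note: natural log of median RNA to DNA barcode read ratio; higher means stronger binding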
T6 chain: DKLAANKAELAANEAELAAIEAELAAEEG

[7] = target: T7, APC9182-AA; assay: two-hybrid library CCmax; settings: mean of both orientations
T7 chain: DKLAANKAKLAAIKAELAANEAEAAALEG

[8] = target: T8, APC9291-AA; assay: two-hybrid library CCmax; settings: mean of both orientations
T8 chain: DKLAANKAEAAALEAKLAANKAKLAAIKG

[9] = target: T9, APC8401-AA; assay: two-hybrid library CCmax; settings: mean of both orientations
T9 chain: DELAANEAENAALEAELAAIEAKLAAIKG

[10] = target: T10, APC5531-AA; assay: two-hybrid library CCmax; settings: mean of both orientations
T10 chain: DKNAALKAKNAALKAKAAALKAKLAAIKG

[11] = target: T11, APC4100-AA; assay: two-hybrid library CCmax; settings: mean of both orientations
T11 chain: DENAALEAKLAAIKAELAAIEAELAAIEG

[12] = target: T12, APC3265-AA; assay: two-hybrid library CCmax; settings: mean of both orientations
T12 chain: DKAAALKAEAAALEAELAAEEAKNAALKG

[13] = target: T13, APC3354-AA; assay: two-hybrid library CCmax; settings: mean of both orientations
T13 chain: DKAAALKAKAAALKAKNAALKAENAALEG

[14] = target: T14, APC6088-AA; assay: two-hybrid library CCmax; settings: mean of both orientations
T14 chain: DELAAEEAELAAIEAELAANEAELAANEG

[15] = target: T15, APC542-AA; assay: two-hybrid library CCmax; settings: mean of both orientations
T15 chain: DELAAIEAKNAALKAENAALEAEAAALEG

[16] = target: T16, APC2981-AA; assay: two-hybrid library CCmax
T16 chain: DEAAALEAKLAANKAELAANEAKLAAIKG

[17] = target: T17, APC9141-AA; assay: two-hybrid library CCmax; settings: mean of both orientations
T17 chain: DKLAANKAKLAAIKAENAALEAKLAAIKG

[18] = target: T18, APC3881-AA; assay: two-hybrid library CCmax; settings: mean of both orientations
T18 chain: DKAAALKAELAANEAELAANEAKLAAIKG

[19] = target: T19, 4H906-bH; assay: two-hybrid library CCNG1
T19 chain: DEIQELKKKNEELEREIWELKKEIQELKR

[20] = target: T20, 4H584-bH; assay: two-hybrid library CCNG1
T20 chain: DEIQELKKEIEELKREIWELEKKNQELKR

[21] = target: T21, 4H850-bH; assay: two-hybrid library CCNG1
T21 chain: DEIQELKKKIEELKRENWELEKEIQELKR

[22] = target: T22, 4H570-bH; assay: two-hybrid library CCNG1
T22 chain: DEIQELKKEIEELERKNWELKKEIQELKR

[23] = target: T23, 4H3858-bH; assay: two-hybrid library CCNG1
T23 chain: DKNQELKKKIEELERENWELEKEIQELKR

[24] = target: T24, 4H4073-bH; assay: two-hybrid library CCNG1
T24 chain: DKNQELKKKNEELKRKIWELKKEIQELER

[25] = target: T25, 4H3974-bH; assay: two-hybrid library CCNG1
T25 chain: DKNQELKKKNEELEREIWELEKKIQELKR

[26] = target: T26, 4H619-bH; assay: two-hybrid library CCNG1
T26 chain: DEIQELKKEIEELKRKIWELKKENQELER

[27] = target: T27, 4H3817-bH; assay: two-hybrid library CCNG1
T27 chain: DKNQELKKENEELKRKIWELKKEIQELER

[28] = target: T28, 4H3120-AA; assay: two-hybrid library CCmax; settings: mean of both orientations
T28 chain: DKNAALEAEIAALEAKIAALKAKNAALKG

[29] = target: T29, 4H909-AA; assay: two-hybrid library CCmax; settings: mean of both orientations
T29 chain: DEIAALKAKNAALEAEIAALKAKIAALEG

[30] = target: T30, 4H930-AA; assay: two-hybrid library CCmax; settings: mean of both orientations
T30 chain: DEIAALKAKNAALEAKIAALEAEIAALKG

[31] = target: T31, 4H850-AA; assay: two-hybrid library CCmax; settings: mean of both orientations
T31 chain: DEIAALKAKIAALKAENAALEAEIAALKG

[32] = target: T32, 4H3410-AA; assay: two-hybrid library CCmax; settings: mean of both orientations
T32 chain: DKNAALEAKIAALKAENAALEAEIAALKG

[33] = target: T33, 4H458-AA; assay: two-hybrid library CCmax; settings: mean of both orientations
T33 chain: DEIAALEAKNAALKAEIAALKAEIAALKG

[34] = target: T34, 4H3395-AA; assay: two-hybrid library CCmax; settings: mean of both orientations
T34 chain: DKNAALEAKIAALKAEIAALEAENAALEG

[35] = target: T35, 4H2274-AA; assay: two-hybrid library CCmax; settings: mean of both orientations
T35 chain: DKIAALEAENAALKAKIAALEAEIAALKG

[36] = target: T36, 4H2865-AA; assay: two-hybrid library CCmax; settings: mean of both orientations
T36 chain: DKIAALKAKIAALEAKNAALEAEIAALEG

[37] = target: T37, 4H3381-AA; assay: two-hybrid library CCmax; settings: mean of both orientations
T37 chain: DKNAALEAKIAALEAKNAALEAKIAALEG

[38] = target: T38, 4H94-AA; assay: two-hybrid library CCmax; settings: mean of both orientations
T38 chain: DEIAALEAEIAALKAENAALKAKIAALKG

[39] = target: T39, 4H629-AA; assay: two-hybrid library CCmax; settings: mean of both orientations
T39 chain: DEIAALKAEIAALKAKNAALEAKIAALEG

[40] = target: T40, 4H2389-AA; assay: two-hybrid library CCmax; settings: mean of both orientations
T40 chain: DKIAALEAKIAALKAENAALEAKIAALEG

[41] = target: T41, 4H3865-AA; assay: two-hybrid library CCmax
T41 chain: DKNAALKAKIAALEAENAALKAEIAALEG

[42] = target: T42, 4H3590-AA; assay: two-hybrid library CCmax; settings: mean of both orientations
T42 chain: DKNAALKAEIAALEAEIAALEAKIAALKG

[43] = target: T43, 4H310-AA; assay: two-hybrid library CCmax; settings: mean of both orientations
T43 chain: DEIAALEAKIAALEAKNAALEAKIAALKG

[44] = target: T44, 4H2162-AA; assay: two-hybrid library CCmax; settings: mean of both orientations
T44 chain: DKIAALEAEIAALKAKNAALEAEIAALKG

[45] = target: T45, 4H797-AA; assay: two-hybrid library CCmax; settings: mean of both orientations
T45 chain: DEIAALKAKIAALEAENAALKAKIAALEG

[46] = target: T46, 4H3016-AA; assay: two-hybrid library CCmax; settings: mean of both orientations
T46 chain: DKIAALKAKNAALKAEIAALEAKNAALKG

[47] = target: T47, 4H2109-AA; assay: two-hybrid library CCmax
T47 chain: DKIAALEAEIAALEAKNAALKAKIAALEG

[48] = target: T48, 4H745-AA; assay: two-hybrid library CCmax; settings: mean of both orientations
T48 chain: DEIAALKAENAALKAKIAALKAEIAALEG

[49] = target: T49, 4H2698-AA; assay: two-hybrid library CCmax; settings: mean of both orientations
T49 chain: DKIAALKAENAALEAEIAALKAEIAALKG

[50] = target: T50, 4H570-AA; assay: two-hybrid library CCmax; settings: mean of both orientations
T50 chain: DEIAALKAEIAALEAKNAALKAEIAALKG

[51] = target: T51, 4H2725-AA; assay: two-hybrid library CCmax; settings: mean of both orientations
T51 chain: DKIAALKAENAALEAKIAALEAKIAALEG

[52] = target: T52, 4H3009-AA; assay: two-hybrid library CCmax; settings: mean of both orientations
T52 chain: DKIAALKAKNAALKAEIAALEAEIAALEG

[53] = target: T53, 4H3697-AA; assay: two-hybrid library CCmax; settings: mean of both orientations
T53 chain: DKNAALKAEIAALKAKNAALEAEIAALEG

[54] = target: T54, 4H891-AA; assay: two-hybrid library CCmax; settings: mean of both orientations
T54 chain: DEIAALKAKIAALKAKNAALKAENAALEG

[55] = target: T55, 4H2438-AA; assay: two-hybrid library CCmax; settings: mean of both orientations
T55 chain: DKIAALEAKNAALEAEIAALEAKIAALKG

[56] = target: T56, 4H2649-AA; assay: two-hybrid library CCmax; settings: mean of both orientations
T56 chain: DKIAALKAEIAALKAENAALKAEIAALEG

[57] = target: T57, 4H710-AA; assay: two-hybrid library CCmax; settings: mean of both orientations
T57 chain: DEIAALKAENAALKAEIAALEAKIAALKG

[58] = target: T58, 4H3753-AA; assay: two-hybrid library CCmax; settings: mean of both orientations
T58 chain: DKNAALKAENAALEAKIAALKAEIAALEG

[59] = target: T59, 4H3130-AA; assay: two-hybrid library CCmax; settings: mean of both orientations
T59 chain: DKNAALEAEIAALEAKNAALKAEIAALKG

[60] = target: T60, 4H485-AA; assay: two-hybrid library CCmax; settings: mean of both orientations
T60 chain: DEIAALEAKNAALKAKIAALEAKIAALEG

[61] = target: T61, 4H2473-AA; assay: two-hybrid library CCmax; settings: mean of both orientations
T61 chain: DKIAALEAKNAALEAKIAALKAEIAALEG

[62] = target: T62, 4H2253-AA; assay: two-hybrid library CCmax; settings: mean of both orientations
T62 chain: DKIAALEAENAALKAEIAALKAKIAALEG

[63] = target: T63, 4H2330-AA; assay: two-hybrid library CCmax; settings: mean of both orientations
T63 chain: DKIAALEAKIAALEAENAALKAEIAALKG

[64] = target: T64, 4H3165-AA; assay: two-hybrid library CCmax; settings: mean of both orientations
T64 chain: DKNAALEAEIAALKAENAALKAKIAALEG

[65] = target: T65, 4H536-AA; assay: two-hybrid library CCmax; settings: mean of both orientations
T65 chain: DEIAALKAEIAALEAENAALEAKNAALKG

DEAAALEAKLAANKAELAANEAKLAAIKG [APC2981-AA] gave an interaction score [1] of -1.68, an interaction score [2] of -2.05 and an interaction score [3] of -1.73. For the same binder, the interaction score [4] was -1.71, the interaction score [5] was -1.75 and the interaction score [6] was -1.51. For the same binder, the interaction score [7] was -1.76, the interaction score [8] was -1.74 and the interaction score [9] was -1.71. For the same binder, the interaction score [10] was -1.79, the interaction score [11] was -1.62 and the interaction score [12] was -1.62. It also gave an interaction score [13] of -2.3, an interaction score [14] of -1.49 and an interaction score [15] of -1.62. For the same binder, the interaction score [16] was -1.58, the interaction score [17] was -1.53 and the interaction score [18] was -1.67.

DKNQELKKENEELKRKIWELKKEIQELER [4H3817-bH] showed an interaction score [19] of -0.699, an interaction score [20] of -0.723 and an interaction score [21] of -0.885. The interaction score [22] was -0.71, the interaction score [23] was -0.973 and the interaction score [24] was -1.13. For the same binder, the interaction score [25] was 0.787, the interaction score [26] was 0.591 and the interaction score [27] was 0.775.

In the case of DKIAALEAEIAALEAKNAALKAKIAALEG [4H2109-AA], the interaction score [28] is reported as -0.474, the interaction score [29] is reported as -0.525 and the interaction score [30] is reported as -0.719. It also gave an interaction score [31] of 2.07, an interaction score [32] of 1.87 and an interaction score [33] of -1.45. The interaction score [34] was -0.63, the interaction score [35] was -1.47 and the interaction score [36] was 2.17. It also gave an interaction score [37] of -0.283, an interaction score [38] of 1.43 and an interaction score [39] of 1.09. For the same binder, the interaction score [40] was 2.49, the interaction score [41] was -0.488 and the interaction score [42] was 1.21. The interaction score [43] was 1.94, the interaction score [44] was 0.55 and the interaction score [45] was 1.44. For the same binder, the interaction score [46] was -1.16, the interaction score [47] was 1.67 and the interaction score [48] was -0.947. The interaction score [49] was 1.53, the interaction score [50] was -0.239 and the interaction score [51] was 0.465. For the same binder, the interaction score [52] was -0.233, the interaction score [53] was -0.415 and the interaction score [54] was -1.3. It also gave an interaction score [55] of -0.365, an interaction score [56] of 1.26 and an interaction score [57] of -1.26. It also gave an interaction score [58] of 0.644, an interaction score [59] of -1.05 and an interaction score [60] of -0.723. The interaction score [61] was -0.356, the interaction score [62] was -1.76 and the interaction score [63] was 0.0427. For the same binder, the interaction score [64] was -0.391 and the interaction score [65] was 0.839.

Source: PMC10397247
